Data set [1] relates to Saccharomyces cerevisiae. The data set can be described thus: protein stability index of tFT-peptide fusion (C-terminal peptide) (PSI (0-1 scale)); higher = more stable (slower turnover). Particulars: genetic background: wild type; temperature: 30 C.
The subject of data set [2] is Saccharomyces cerevisiae. Described as above. As for the experimental part: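 MPS profiling in S. cerevisiae of the tFT-X12 degron library: putative degron peptides plus stable controls, 12 aa, fused to the C-terminus of a sfGFP-mCherry timer. Cells are FACS-sorted into 8 mCherry/sfGFP bins and deep-sequenced. PSI runs from 0 (unstable) to 1 (stable). Backgrounds are wild type, das1Δ and doa10Δ at 30 °C, and wild type, das1Δ, cdc34-1 and cdc53-1 at 37 °C; 2-3 technical replicates each.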

Setting [3] is: genetic background: cdc34-1, temperature: 37 C.
The mark [4] stands for this setting: genetic background: cdc53-1, temperature: 37 C.
Setting [5] is: genetic background: das1 deletion, temperature: 30 C.
[6] abbreviates: genetic background: das1 deletion, temperature: 37 C.
Setting [7] is: genetic background: doa10 deletion, temperature: 30 C.
[8] abbreviates: genetic background: wild type, temperature: 30 C.
The mark [9] stands for this setting: genetic background: wild type, temperature: 37 C.

± gives the standard deviation of the averaged measurements.
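Also: PSI is a weighted mean of sequencing reads over stability bins, variants kept only with over 10 reads, mCherry proximal and sfGFP distal, peptide attached via GGGS linker.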

Regarding VWVISLCIGGVG, the protein stability index is 0.314 ± 0.025 in the data set with Saccharomyces cerevisiae [1]; 0.298 ± 0.0059 in the data set with Saccharomyces cerevisiae [2] (setting [3]); 0.366 ± 0.0041 in the data set on Saccharomyces cerevisiae [2] (setting [4]); 0.241 ± 0.026 with Saccharomyces cerevisiae [2] (setting [5]); 0.399 ± 0.011 in the data set with Saccharomyces cerevisiae [2] (setting [6]); 0.205 ± 0.011 in the data set with Saccharomyces cerevisiae [2] (setting [7]). Moreover, the protein stability index was 0.225 ± 0.021 with Saccharomyces cerevisiae [2] (setting [8]) and 0.3811 ± 0.002 in the data set with Saccharomyces cerevisiae [2] (setting [9]).
As for VYFRMGFMRVCV, the protein stability index with Saccharomyces cerevisiae [1] came to 0.4611 ± 0.0042; with Saccharomyces cerevisiae [2] (setting [3]), 0.487 ± 0.05; with Saccharomyces cerevisiae [2] (setting [4]), 0.5 ± 0.037; in the data set on Saccharomyces cerevisiae [2] (setting [5]), 0.416 ± 0.032; in the data set with Saccharomyces cerevisiae [2] (setting [6]), 0.554 ± 0.0079; in the data set with Saccharomyces cerevisiae [2] (setting [7]), 0.32 ± 0.013. Besides, the protein stability index in the data set on Saccharomyces cerevisiae [2] (setting [8]) came to 0.344 ± 0.027; in the data set on Saccharomyces cerevisiae [2] (setting [9]), 0.493 ± 0.015.
Consider VYFRYWLLVVVF, for which the protein stability index with Saccharomyces cerevisiae [1] came out at 0.129 ± 0.019; in the data set on Saccharomyces cerevisiae [2] (setting [3]), 0.0945 ± 0.029; in the data set on Saccharomyces cerevisiae [2] (setting [4]) it was 0.106 ± 0.022; with Saccharomyces cerevisiae [2] (setting [5]), 0.148 ± 0.034; with Saccharomyces cerevisiae [2] (setting [6]) it was 0.215 ± 0.0027; in the data set on Saccharomyces cerevisiae [2] (setting [7]), 0.117 ± 0.029. Moreover, the protein stability index with Saccharomyces cerevisiae [2] (setting [8]) stood at 0.101 ± 0.026; in the data set on Saccharomyces cerevisiae [2] (setting [9]), 0.15 ± 0.0062.
For VYRILFWFLCFG, the protein stability index in the data set on Saccharomyces cerevisiae [1] worked out at 0.4679 ± 0.0011; in the data set with Saccharomyces cerevisiae [2] (setting [3]), 0.489 ± 0.023; in the data set on Saccharomyces cerevisiae [2] (setting [4]), 0.406 ± 0.072; in the data set on Saccharomyces cerevisiae [2] (setting [5]) it was 0.422 ± 0.026; in the data set on Saccharomyces cerevisiae [2] (setting [6]), 0.564 ± 0.043; in the data set with Saccharomyces cerevisiae [2] (setting [7]) it was 0.4545 ± 0.0021. The protein stability index with Saccharomyces cerevisiae [2] (setting [8]) was 0.412 ± 0.01; with Saccharomyces cerevisiae [2] (setting [9]), 0.529 ± 0.045.
With WDPEVVHRLWLN, the protein stability index in the data set with Saccharomyces cerevisiae [1] amounted to 0.237 ± 0.019; in the data set on Saccharomyces cerevisiae [2] (setting [3]), 0.587 ± 0.037; with Saccharomyces cerevisiae [2] (setting [4]), 0.772 ± 0.029; with Saccharomyces cerevisiae [2] (setting [5]) it was 0.662 ± 0.034; with Saccharomyces cerevisiae [2] (setting [6]) it was 0.766 ± 0.013; in the data set with Saccharomyces cerevisiae [2] (setting [7]) it was 0.125 ± 0.0063. For the same sequence, the protein stability index in the data set on Saccharomyces cerevisiae [2] (setting [8]) was 0.14 ± 0.0092; with Saccharomyces cerevisiae [2] (setting [9]), 0.155 ± 0.019.
As to WFCCAQRGVIVG, the protein stability index is 0.405 ± 0.012 with Saccharomyces cerevisiae [1]; 0.446 ± 0.018 with Saccharomyces cerevisiae [2] (setting [3]); 0.452 ± 0.028 in the data set with Saccharomyces cerevisiae [2] (setting [4]); 0.336 ± 0.024 in the data set on Saccharomyces cerevisiae [2] (setting [5]); 0.502 ± 0.0087 in the data set on Saccharomyces cerevisiae [2] (setting [6]); 0.311 ± 0.011 in the data set with Saccharomyces cerevisiae [2] (setting [7]). For the same sequence, the protein stability index was found to be 0.336 ± 0.026 in the data set with Saccharomyces cerevisiae [2] (setting [8]) and 0.478 ± 0.0083 with Saccharomyces cerevisiae [2] (setting [9]).
Regarding WFFRLFFLFFSG, the protein stability index in the data set on Saccharomyces cerevisiae [1] turned out to be 0.383 ± 0.0048; in the data set with Saccharomyces cerevisiae [2] (setting [3]), 0.34 ± 0.008; with Saccharomyces cerevisiae [2] (setting [4]) it was 0.335 ± 0.019; with Saccharomyces cerevisiae [2] (setting [5]), 0.4 ± 0.028; with Saccharomyces cerevisiae [2] (setting [6]), 0.502 ± 0.019; with Saccharomyces cerevisiae [2] (setting [7]), 0.563 ± 0.022. Moreover, the protein stability index in the data set with Saccharomyces cerevisiae [2] (setting [8]) was 0.371 ± 0.019; with Saccharomyces cerevisiae [2] (setting [9]) it was 0.412 ± 0.02.
With WFLMVILYTVYG, the protein stability index was 0.299 ± 0.0077 in the data set with Saccharomyces cerevisiae [1]; 0.157 ± 0.0068 in the data set on Saccharomyces cerevisiae [2] (setting [3]); 0.2 ± 0.0073 in the data set with Saccharomyces cerevisiae [2] (setting [4]); 0.182 ± 0.035 with Saccharomyces cerevisiae [2] (setting [5]); 0.304 ± 0.0055 with Saccharomyces cerevisiae [2] (setting [6]); 0.149 ± 0.033 in the data set with Saccharomyces cerevisiae [2] (setting [7]). Also, the protein stability index was found to be 0.187 ± 0.032 in the data set on Saccharomyces cerevisiae [2] (setting [8]) and 0.278 ± 0.013 in the data set on Saccharomyces cerevisiae [2] (setting [9]).
On to WGCTGGRGRLVC, for which the protein stability index was 0.428 ± 0.049 in the data set with Saccharomyces cerevisiae [1]; 0.69 ± 0.025 in the data set on Saccharomyces cerevisiae [2] (setting [3]); 0.74 ± 0.013 with Saccharomyces cerevisiae [2] (setting [4]); 0.643 ± 0.029 in the data set on Saccharomyces cerevisiae [2] (setting [5]); 0.7405 ± 0.0052 in the data set on Saccharomyces cerevisiae [2] (setting [6]); 0.254 ± 0.011 in the data set on Saccharomyces cerevisiae [2] (setting [7]). The protein stability index in the data set with Saccharomyces cerevisiae [2] (setting [8]) is 0.295 ± 0.013; with Saccharomyces cerevisiae [2] (setting [9]) it was 0.555 ± 0.024.
Take WGGIASLVASAA: the protein stability index with Saccharomyces cerevisiae [1] came out at 0.364 ± 0.0089; in the data set with Saccharomyces cerevisiae [2] (setting [3]) it was 0.36 ± 0.049; in the data set with Saccharomyces cerevisiae [2] (setting [4]), 0.437 ± 0.1; with Saccharomyces cerevisiae [2] (setting [5]), 0.236 ± 0.033; with Saccharomyces cerevisiae [2] (setting [6]), 0.411 ± 0.0061; with Saccharomyces cerevisiae [2] (setting [7]) it was 0.214 ± 0.006. Further, the values for the protein stability index in the data set on Saccharomyces cerevisiae [2] (setting [8]) and in the data set on Saccharomyces cerevisiae [2] (setting [9]) were 0.259 ± 0.019 and 0.378 ± 0.023, respectively.
Regarding WLFASCVFFWSS, the protein stability index with Saccharomyces cerevisiae [1] is 0.426 ± 0.0054; in the data set with Saccharomyces cerevisiae [2] (setting [3]), 0.447 ± 0.045; in the data set with Saccharomyces cerevisiae [2] (setting [4]) it was 0.502 ± 0.0068; in the data set on Saccharomyces cerevisiae [2] (setting [5]) it was 0.386 ± 0.026; in the data set with Saccharomyces cerevisiae [2] (setting [6]), 0.525 ± 0.015; in the data set with Saccharomyces cerevisiae [2] (setting [7]) it was 0.355 ± 0.0086. For the same sequence, the protein stability index came out at 0.37 ± 0.0092 in the data set with Saccharomyces cerevisiae [2] (setting [8]) and 0.483 ± 0.011 in the data set with Saccharomyces cerevisiae [2] (setting [9]).

These data come from the supplement of paper PMC10724198.
